From US20230227520A1 (MAX PLANCK GESELLSCHAFT ZUR F RDERUNG DER WISSENSCHAFTEN E V, published 2023)
Each block holds one molecule with its values, some of them ahead of it.

How the values were obtained:
[1] = target: G-CSFR on NFS-60 cells (murine myeloblastic cell line) (mouse) (UniProt P40223); assay: cell-based or functional assay
[2] = target: T1, G-CSF Receptor (G-CSFR) (R&D systems 381-GR-050/CF), recombinant human (human, UniProt Q99062 25-627, limits assumed); assay: SPR, Biacore X100 single-cycle kinetics, G-CSFR amine-coupled on CM5, 1:1 binding model
T1 construct: Bought protein, amine-coupled to a CM5 chip; also called rhG-CSFR; human G-CSF receptor
T1 sequence (looked up): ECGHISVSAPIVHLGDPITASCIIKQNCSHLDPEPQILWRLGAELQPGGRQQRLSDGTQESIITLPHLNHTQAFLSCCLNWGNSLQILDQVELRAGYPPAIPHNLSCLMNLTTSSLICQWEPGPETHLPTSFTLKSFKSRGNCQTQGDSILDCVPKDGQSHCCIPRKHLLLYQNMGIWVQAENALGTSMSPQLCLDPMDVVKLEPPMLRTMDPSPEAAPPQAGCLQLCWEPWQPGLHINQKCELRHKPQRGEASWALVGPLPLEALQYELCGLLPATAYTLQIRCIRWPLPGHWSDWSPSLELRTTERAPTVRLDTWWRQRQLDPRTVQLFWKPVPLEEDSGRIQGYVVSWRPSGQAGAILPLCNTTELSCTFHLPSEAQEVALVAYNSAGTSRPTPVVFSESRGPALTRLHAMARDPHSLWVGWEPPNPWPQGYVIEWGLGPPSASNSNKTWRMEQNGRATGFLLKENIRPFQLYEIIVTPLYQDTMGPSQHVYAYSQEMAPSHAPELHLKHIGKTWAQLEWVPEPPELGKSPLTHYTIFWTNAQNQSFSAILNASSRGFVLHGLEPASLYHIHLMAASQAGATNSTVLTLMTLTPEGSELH
Experimental: (§1) Single-cycle kinetics experiments were performed on a Biacore X100 system (GE Healthcare Life Sciences). G-CSF Receptor (G-CSFR) (R&D systems 381-GR-050/CF) was diluted to 50 μg/ml in 10 mM acetate buffer pH 5.0 and immobilized on the surface of a CM5 sensor chip (GE Healthcare 29149604) using standard amine coupling chemistry. The designs and rhG-CSF (USP RS Filgrastim, Sigma-Aldrich 1270435) were diluted in running buffer (10 mM HEPES, 150 mM NaCl, 3.4 mM EDTA, 0.005% v/v Tween-20). Analyses were conducted at 25° C. at a flow rate of 30 μl/min. Five sequential 10-fold increasing concentrations of the sample solution (for the designs from 0.5 nM to 50 μM, and for rhG-CSF from 0.05 to 500 nM) were injected over the functionalized sensor chip surface for 180 s, followed by a 180 s dissociation with running buffer. At the end of each run, the sensor surface was regenerated with a 240 s injection of 10 mM glycine-HCl pH 2.0. Each experiment was performed two times for rhG-CSF, Boskar3, Boskar4, diSohair2, Moevan, and Moevan_t2. Association rate (ka), dissociation rate (kd), and equilibrium dissociation (Kd) constants were initially obtained by global fitting of the experimental reference-subtracted data to a 1:1 interaction model using the Biacore X100 evaluation software (v.2.0.1). To evaluate if a kinetics model that depends on double the analyte stoichiometry improves the goodness of fit to the data, the following rate integral was used: […]

[3] = target: T1, G-CSF Receptor (G-CSFR) (R&D systems …); assay: SPR, Biacore X100, G-CSFR amine-coupled on CM5, 2nd order kinetics model
Experimental: as §1

[4] = target: T1, G-CSF Receptor (G-CSFR) (R&D systems …); assay: SPR, second-order reaction model, value as told in the text; second-order reaction model, highest concentration sensorgram
Experimental: (§2) To obtain a more detailed picture on the nature of the binding, the inventors fitted the highest concentration sensorgram curves using higher order kinetics models. […] While this higher-order interaction model better explains the data than a 1:1 binding model, a clear deviation remained for rhG-CSF sensorgrams.
(§3) Single-cycle kinetics experiments were performed on a Biacore X100 system (GE Healthcare Life Sciences). G-CSF Receptor (G-CSFR) (R&D systems 381-GR-050/CF) was diluted to 50 μg/ml in 10 mM acetate buffer pH 5.0 and immobilized on the surface of a CM5 sensor chip (GE Healthcare 29149604) using standard amine coupling chemistry. The designs and rhG-CSF (USP RS Filgrastim, Sigma-Aldrich 1270435) were diluted in running buffer (10 mM HEPES, 150 mM NaCl, 3.4 mM EDTA, 0.005% v/v Tween-20). Analyses were conducted at 25° C. at a flow rate of 30 μl/min. Five sequential 10-fold increasing concentrations of the sample solution (for the designs from 0.5 nM to 50 μM, and for rhG-CSF from 0.05 to 500 nM) were injected over the functionalized sensor chip surface for 180 s, followed by a 180 s dissociation with running buffer. At the end of each run, the sensor surface was regenerated with a 240 s injection of 10 mM glycine-HCl pH 2.0. Each experiment was performed two times for rhG-CSF, Boskar3, Boskar4, diSohair2, Moevan, and Moevan_t2. Association rate (ka), dissociation rate (kd), and equilibrium dissociation (Kd) constants were initially obtained by global fitting of the experimental reference-subtracted data to a 1:1 interaction model using the Biacore X100 evaluation software (v.2.0.1).

[5] = target: T2, G-CSFR on NFS-60 cells (murine myeloblastic cell line) (mouse, UniProt P40223 26-837); assay: cell-based or functional assay
T2 sequence (looked up): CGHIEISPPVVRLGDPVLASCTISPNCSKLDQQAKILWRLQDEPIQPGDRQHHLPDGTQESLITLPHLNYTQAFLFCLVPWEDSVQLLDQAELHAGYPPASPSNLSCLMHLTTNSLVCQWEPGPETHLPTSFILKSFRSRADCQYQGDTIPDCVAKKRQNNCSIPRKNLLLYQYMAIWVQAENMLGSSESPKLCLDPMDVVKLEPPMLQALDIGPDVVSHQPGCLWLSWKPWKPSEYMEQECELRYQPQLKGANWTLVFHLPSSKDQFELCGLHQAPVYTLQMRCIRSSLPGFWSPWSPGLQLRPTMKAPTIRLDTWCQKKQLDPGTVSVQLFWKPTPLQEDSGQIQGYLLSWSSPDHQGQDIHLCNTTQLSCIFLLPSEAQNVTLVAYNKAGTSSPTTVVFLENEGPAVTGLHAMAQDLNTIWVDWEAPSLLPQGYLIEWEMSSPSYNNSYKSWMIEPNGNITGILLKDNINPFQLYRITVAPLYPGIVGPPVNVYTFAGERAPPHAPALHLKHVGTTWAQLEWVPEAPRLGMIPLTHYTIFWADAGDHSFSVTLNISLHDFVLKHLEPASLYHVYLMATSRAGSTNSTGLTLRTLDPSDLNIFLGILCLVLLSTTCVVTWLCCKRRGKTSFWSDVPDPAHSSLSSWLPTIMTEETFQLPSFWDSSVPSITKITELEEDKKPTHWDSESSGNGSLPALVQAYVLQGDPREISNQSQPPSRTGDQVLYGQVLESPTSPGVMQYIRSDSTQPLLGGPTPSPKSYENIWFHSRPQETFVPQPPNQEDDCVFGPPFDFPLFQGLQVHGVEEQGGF

[6] = target: T1, G-CSF Receptor (G-CSFR) (R&D systems …); assay: SPR, Biacore X100 single-cycle kinetics, G-CSFR amine-coupled on CM5, 1:1 binding model, second run
Experimental: as §1

[7] = target: T1, G-CSF Receptor (G-CSFR) (R&D systems …); assay: SPR, 1:1 binding, value for the two runs together as told in the text; 1:1 binding, injection dilution series
Experimental: as §2
as §3, with “Association rate (ka), dissociation rate (kd), and equilibrium dissociation (Kd) constants were initially obtained by global fitting of the experimental reference-subtracted data to a 1:1 interaction model using the Biacore X100 evaluation software (v.2.0.1).” left out

[8] = target: T1, G-CSF Receptor (G-CSFR) (R&D systems …); assay: SPR, Biacore X100, G-CSFR amine-coupled on CM5, 2nd order kinetics model, second run
Experimental: as §2, §3

[9] = target: T1, G-CSF Receptor (G-CSFR) (R&D systems …); assay: SPR (Biacore), G-CSFR immobilised on the chip, rhG-CSF 4 nM - 64 nM as analyte, five traces with binding model fit [panel A]
[10] = target: T1, G-CSF Receptor (G-CSFR) (R&D systems …); assay: SPR, Biacore X100 single-cycle kinetics, G-CSFR amine-coupled on CM5, 1:1 binding model; Table 10 series (Moevan/diSohair2 comparison), 1:1 binding model
[11] = target: T1, G-CSF Receptor (G-CSFR) (R&D systems …); assay: SPR, Biacore X100 single-cycle kinetics, G-CSFR amine-coupled on CM5, 1:1 binding model; remark: listed apart in the source
Experimental: To test whether the grafted epitope residues mediate binding of the designs to the G-CSF receptor, the inventors also performed SPR measurements for the Moevan and diSohair2 initial design templates (Moevan_control and diSohair_control, respectively), and no binding was observed (FIG. 20C,F).
as §1

B1: Boskar_4 (designed binder)
chain: AALAAALAEIYKGLAEYQARLKSLEGISPELGPALDALRLDMADFATTMAQAMEEGLDSLPQSFLLKALEQIRKIQADAAALREKLAATYKGNDRAAAAVEIAAQLEAFLEKAYQILRHLAAA
Kd [2]: 8.5 nM
koff [2]: 0.0045 s⁻¹
kon [2]: 520000 M⁻¹ s⁻¹
Kd [3]: 6400 nM
koff [3]: 0.0095 s⁻¹
kon [3]: 1500 M⁻¹ s⁻¹
Kd [4]: 6100 nM
NFS-60 EC50 (ng/mL), proliferation of NFS-60 cells [5]: 27 ng/mL
Kd [6]: 1.7 nM
koff [6]: 0.0015 s⁻¹
kon [6]: 890000 M⁻¹ s⁻¹
Kd [7]: 5.1 nM
Kd [8]: 5800 nM
koff [8]: 0.008 s⁻¹
kon [8]: 1400 M⁻¹ s⁻¹

B3: Boskar_3 (designed binder)
chain: AALAAVLAEIYKGLAEYQARLQSLEGISPELGPALDALRLDVADFATTIAQAMEENKGPLPQSFLLKALEQIRKIQADAAALREKLAATYPSSQRAAAAVEIAAQLEAFLEKAYEILRHLAAA
Kd [2]: 12 nM
koff [2]: 0.0015 s⁻¹
kon [2]: 130000 M⁻¹ s⁻¹
Kd [3]: 6000 nM
koff [3]: 0.0047 s⁻¹
kon [3]: 780 M⁻¹ s⁻¹
Kd [4]: 4400 nM
NFS-60 EC50 (ng/mL), proliferation of NFS-60 cells [5]: 768 ng/mL
Kd [6]: 16 nM
koff [6]: 0.0019 s⁻¹
kon [6]: 120000 M⁻¹ s⁻¹
Kd [7]: 14 nM
Kd [8]: 2600 nM
koff [8]: 0.0058 s⁻¹
kon [8]: 2200 M⁻¹ s⁻¹

Second part, the molecule after the results:

NFS-60 EC50 (ng/mL), proliferation of NFS-60 cells [1]: 0.055 ng/mL
Molecule: csf_2d9q|WILD_TYPE G-CSF (from UniProt P09919 37-204) (ligand)

Kd [2]: 0.36 nM
koff [2]: 0.00028 s⁻¹
kon [2]: 790000 M⁻¹ s⁻¹
Kd [9]: 1.4 nM
koff [9]: 0.0004 s⁻¹
kon [9]: 290000 M⁻¹ s⁻¹
Kd [10]: 1.1 nM
Kd [3]: 82 nM
koff [3]: 0.0009 s⁻¹
kon [3]: 11000 M⁻¹ s⁻¹
Kd [4]: 86 nM
koff [11]: 0.00049 s⁻¹
kon [11]: 300000 M⁻¹ s⁻¹
Kd [6]: 0.41 nM
koff [6]: 0.00026 s⁻¹
kon [6]: 640000 M⁻¹ s⁻¹
Kd [8]: 88 nM
koff [8]: 0.00084 s⁻¹
kon [8]: 10000 M⁻¹ s⁻¹
B2: rhG-CSF (recombinant human G-CSF; USP RS Filgrastim, Sigma-Aldrich 1270435) (ligand)
chain: TPLGPASSLPQSFLLKCLEQVRKIQGDGAALQEKLCATYKLCHPEELVLLGHSLGIPWAPLSSCPSQALQLAGCLSQLHSGLFLYQGLLQALEGISPELGPTLDTLQLDVADFATTIWQQMEELGMAPALQPTQGAMPAFASAFQRRAGGVLVASHLQSFLEVSYRVLRHLAQP
